B1: BCY00008653 (peptide)
peptide: Ac-A[Dap(Me)]PQDLELCTFLFGD[Dap(Me)]A
modifications: linker 2-9-16 via TBMB
notes: Bicyclic peptide on a TBMB scaffold; first and third cysteines of BCY00008655 replaced by Dap(Me); also called Ac-(28-06)(TBMB) Cys13Dap(Me)
B2: BCY00008654 (peptide)
peptide: Ac-A[Dap(Me)]PQDLEL[Dap(Me)]TFLFGD[Dap(Me)]A
modifications: linker 2-9-16 via TBMB
notes: Bicyclic peptide on a TBMB scaffold; all three cysteines of BCY00008655 replaced by Dap(Me); also called Ac-(28-06)(TBMB) Cys123Dap(Me)
B3: BCY00008649 (peptide)
peptide: Ac-ACPQDLEL[Dap(Me)]TFLFGDCA
modifications: linker 2-9-16 via TBMB
notes: Bicyclic peptide on a TBMB scaffold; second cysteine of BCY00008655 replaced by Dap(Me); also called Ac-(28-06)(TBMB) Cys2Dap(Me)
B4: BCY00008651 (peptide)
peptide: Ac-A[Dap(Me)]PQDLEL[Dap(Me)]TFLFGDCA
modifications: linker 2-9-16 via TBMB
notes: Bicyclic peptide on a TBMB scaffold; first and second cysteines of BCY00008655 replaced by Dap(Me); also called Ac-(28-06)(TBMB) Cys12Dap(Me)
B5: BCY00008648 (peptide)
peptide: Ac-A[Dap(Me)]PQDLELCTFLFGDCA
modifications: linker 2-9-16 via TBMB
notes: Bicyclic peptide on a TBMB scaffold; first cysteine of BCY00008655 replaced by Dap(Me); also called Ac-(28-06)(TBMB) Cys1Dap(Me)
B6: BCY00008655 (peptide)
peptide: Ac-ACPQDLELCTFLFGDCA
modifications: linker 2-9-16 via TBMB
notes: Bicyclic peptide on a TBMB scaffold; also called Ac-(28-06)(TBMB)

Starred links: 1 amine or outer side, 2 acyl side, 3 side chain; linkers in the order of their positions; H or OH if unused. Positions of bridges follow the written chain, without caps; N, C: chain ends. Non-standard residues stand in square brackets, D forms with d. No end group written: not given here. TBMB = c1c(C[*:1])cc(C[*:3])cc1C[*:2]; Dap(Me) = CNC[C@H](N)C(=O)O

One test has as its target T1, IL-17A (UniProt Q16552 24-155).
T1 construct: also called Interleukin-17
T1 sequence (looked up): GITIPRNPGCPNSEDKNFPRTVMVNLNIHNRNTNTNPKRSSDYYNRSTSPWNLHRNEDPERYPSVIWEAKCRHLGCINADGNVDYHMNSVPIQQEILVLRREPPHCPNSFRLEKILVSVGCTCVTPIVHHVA
The test is described as follows: IL-17A binding assay, method analogous to WO 2011/141823; mean of n1 and n2.
For orientation: Ki means the equilibrium dissociation constant of an inhibitor or competing ligand from its target. A lower Ki goes with higher affinity. Molecule B1 showed a Ki of 129 nM.

Molecule B2 came in with a Ki of 94.7 nM.

Take B3: the Ki is 60.2 nM.

B4 yielded a Ki of 264 nM.

Molecule B5 came in with a Ki of 116 nM.

On to B6, for which the Ki was 93 nM.

A further test addresses T1, IL-17A. The test is described as follows: IL-17A binding assay, method analogous to WO 2011/141823; replicate n1.
B1 registered a Ki of 173 nM.

B2 came in with a Ki of 100 nM.

As for B3, the Ki is 60.8 nM.

As to B4, the Ki stood at 298 nM.

Turning to B5, affinity was put at a Ki of 127 nM.

B6 gave a Ki of 78.8 nM.

A further test concerns the target T2, hIL17-A (human, UniProt Q16552 24-155).
T2 construct: also called human IL-17A
T2 sequence (looked up): T1 sequence (looked up)
The test is described as follows: IL-17 binding assay (Kd), as described in GB1720932.1.
Broadly, the Kd is a measure of binding affinity in units of concentration. With CPENELYCFLSSQQC (linker 1-8-15 via TBMB) [Reference Example A2, CPENELYCFLSSQQC], the Kd turned out to be 398 nM.

Another test concerns the target T3, hIL17-F (human, UniProt Q96PD4 31-163).
T3 construct: also called human IL-17F
T3 sequence (looked up): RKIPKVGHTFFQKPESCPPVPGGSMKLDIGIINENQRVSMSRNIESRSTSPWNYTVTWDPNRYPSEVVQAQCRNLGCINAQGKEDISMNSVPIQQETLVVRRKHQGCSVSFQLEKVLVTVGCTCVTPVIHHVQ
The test is described as above.
Take ACLWKDNCTHWSLCA (linker 2-8-14 via TBMB) [Reference Example A6, A-CLWKDNCTHWSLC-A]: the affinity, expressed as Kd, was 392 nM.

Turning to ACGYDYYCALYDICA (linker 2-8-14 via TBMB) [Reference Example A5, A-…-A], the Kd stood at 198 nM.

The target of the next test is T1, IL-17A. The test is described as follows: IL-17A binding assay, method analogous to WO 2011/141823; replicate n2.
Molecule B1 had a Ki of 85.9 nM.

B2 registered a Ki of 89.3 nM.

With B3, the Ki came out at 59.6 nM.

For B4, the Ki was 231 nM.

Regarding B5, the Ki was 105 nM.

B6 gave a Ki of 107 nM.

For the origin of these results see patent US20210122785A1 (Bicycle, published 2021).
